Assay [1] concerns the target T1, human BMP9 (BMP9/Growth Differentiation Factor 2 [Homo sapiens], NP_057288) (human, UniProt Q9UK05 320-429, limits assumed).
T1 sequence: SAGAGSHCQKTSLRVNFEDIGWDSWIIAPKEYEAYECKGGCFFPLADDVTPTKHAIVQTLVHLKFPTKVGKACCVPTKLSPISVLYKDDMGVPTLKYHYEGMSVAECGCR
The assay is described as follows: cell-based or functional assay.

Assay [2] has as its target T1, human BMP9 (BMP9/Growth Differentiation …). The assay is described as follows: MSD-SET solution equilibrium titration. The method, then: (§1) The amount of free Fab binding sites was determined by transferring the mixtures on antigen-coated plates and a brief incubation. The free Fab was consequently bound to the plate and detected with a detection antibody after a washing step for removing Fab-antigen complexes. The resulting signal was plotted versus the antigen concentration; and the KD was accurately determined by non-linear curve fitting.
(§2) A 22 serial 2ⁿ dilution of the antigens (human BMP9 (GD-43-KS00); cyno BMP9, rat BMP9 (R&D Systems 5566-BP) or mouse BMP9 (iPROT101715)) was prepared in incubation buffer (PBS (Teknova Cat#P0195) containing 0.5% BSA (Sigma Cat#A7906-500G) and 0.02% Tween-20 (VWR Cat#437082Q)). A constant concentration of the Fab was added. A volume of 60 ul of each antigen:Fab mix was distributed in duplicates to a 384-well polypropylene microtiter plate (PP MTP, Greiner Cat#781280). Incubation buffer served as negative control and a sample containing no antigen served as positive control (Bₘₐₓ). The plate was sealed and incubated overnight (O/N) at room temperature (RT).
(§3) A 384-well standard MSD array plate (Meso Scale Discovery Cat#L21XA) was coated with 30 ul/well human BMP9 diluted in PBS as capture agent and incubated O/N at 4° C. After washing for 3 times with 70 ul/well washing buffer (TBS (Teknova Cat#T1680) with 0.05% Tween-20), the plate was blocked with 50 ul/well blocking buffer (PBS with 5% BSA) for 1 hour at RT. After washing, a volume of 30 ul/well of the antigen:Fab mix was transferred from the PP MTP to the coated MSD plate and incubated for 20 min at RT. After an additional wash step, 30 ul of detection antibody (Goat anti-human Fab specific (Jackson Immuno Research Cat#109-005-097) conjugated with MSD SULFO-TAG NHS Ester (Meso Scale Discovery Cat#R91AN-1)) diluted 1:1000 in incubation buffer was added to each well and incubated for 30 min at RT. The MSD plate was washed and 35 ul/well of read buffer (MSD Read Buffer T 4×, Meso Scale Discovery Cat#R92TC-1) was added and then incubated for 5 min at RT. ECL signals were measured with the MSD SECTOR Imager 6000. The data was evaluated with XLfit (IDBS) software following a 1:1 fit model for Fab (according to Piehler et al., 1997).

Assay [3] concerns the target T2, cyno BMP9 (cyno, UniProt G7PEU8 320-429).
T2 sequence: T1 sequence with A2T, D23N, V84I
The assay is described as follows: MSD-SET solution equilibrium titration. As to the method:
as §1, §2, §3

For assay [4], the target named is T3, rat BMP9 (rat, UniProt M0RB87 320-430, The mature growth factor is a disulfide-linked homodimer. One copy of the polypeptide is given.).
T3 construct: also called rat BMP9 (R&D Systems 5566-BP); rat BMP9 condition medium
T3 sequence: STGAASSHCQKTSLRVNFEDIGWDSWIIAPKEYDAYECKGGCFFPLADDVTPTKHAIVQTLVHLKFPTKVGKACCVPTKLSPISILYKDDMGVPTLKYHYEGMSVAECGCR
Put plainly: MSD-SET solution equilibrium titration. As to the method: as §1, §2, §3

For assay [5], the target named is T4, mouse BMP9 (mouse, UniProt Q9WV56 319-428, limits assumed).
T4 construct: also called murine BMP9; mouse BMP9 (iPROT101715)
T4 sequence (looked up): T1 sequence with A2T, G5S, E33D, V84I
The assay is described as follows: MSD-SET solution equilibrium titration. The method, then:
as §1, §2, §3

The target in assay [6] is T1, human BMP9 (BMP9/Growth Differentiation …). Put plainly: blocking ELISA; competitor Type II BMP receptor (ActRIIB, BMPRII). The method, then: (§4) Blocking ELISA was used to identify positive clones that can inhibit the interactions between BMP9 and its receptors. Four different recombinant BMP9 receptors can be used: human Alk1-Fc (R&D system, 370-AL-100); human BMPRII-Fc (R&D system, 811-BR-100); human ActRIIA-Fc (R&D system, 340-R2-100); human ActRIIB-Fc (R&D system).
(§5) The blocking activity of antibody sample to specific ligand/receptor combination was measured by ELISA. In brief, 50 ul of receptor at a concentration of 1 ug/ml in coating buffer (PBS) was added into 96 well ELISA plates at 4° C. overnight, followed by washing with PBST one time. ELISA plates were blocked with 200 ul blocking buffer (PBST containing 1% BSA) in each well and then incubated at room temperature (RT) for 1 hour, followed by washing with PBST for 3 times. Diluted antibody sample was mixed with biotinylated human BMP9 (bio-hBMP9 of 1 ug/ml) and incubated at RT for 45 minutes. The mixture of antibody and bio-hBMP9 was added to the plates of 50 ul/well and then incubated at RT for 30 minutes, followed by washing with PBST for 3 times. 50 ul Poly-HRP Streptavidin (Thermofisher, 21140) was added to each well of the plates and incubated at RT for 30 minutes, followed by washing with PBST for 5 times. Finally, 50 ul of TMB reagent (Invitrogen 002023) and 50 ul of 1N HCl (Invitrogen SS01100) were added to each well to stop the reaction. Absorbance of each well was read at 450 nm to get readout OD₄₅₀.
In general terms: ELISA stands for enzyme-linked immunosorbent assay.

The target of assay [7] is T5, human BMP2 (human, UniProt P12643 283-396).
T5 construct: Bought recombinant protein; also called huBMP2; rhBMP2 (R&D Cat#355-BM-010)
T5 sequence (P12643 283-396 limits assumed): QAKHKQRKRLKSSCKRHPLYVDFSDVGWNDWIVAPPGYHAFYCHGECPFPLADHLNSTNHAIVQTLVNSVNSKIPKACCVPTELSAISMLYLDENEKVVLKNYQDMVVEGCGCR
Put plainly: Table 5 (caption: MSD-SET; Example 6 describes Biacore SPR on immobilised rhBMP2, Fab 31.25-1000 nM). Background: SPR reads the build-up and loss of mass on a sensor chip optically.

The target in assay [8] is T6, human BMP7 (human, UniProt P18075 293-431).
T6 construct: Bought recombinant protein; also called huBMP7; rhBMP7 (R&D Cat#354-BP-010)
T6 sequence (looked up): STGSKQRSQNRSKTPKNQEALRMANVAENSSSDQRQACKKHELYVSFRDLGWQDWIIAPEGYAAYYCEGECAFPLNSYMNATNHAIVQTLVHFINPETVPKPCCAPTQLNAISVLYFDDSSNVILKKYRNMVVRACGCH
The assay is described as follows: Table 5 (caption: MSD-SET; Example 6 describes Biacore SPR on immobilised rhBMP7, Fab 31.25-1000 nM).

Assay [9] addresses T7, human BMP10 (Bone Morphogenetic Protein 10 Preproprotein [Homo sapiens], NP_055297) (human, UniProt O95393 317-424).
T7 construct: Bought recombinant protein; also called huBMP10; rhBMP10 (R&D Cat#2926-BP-025)
T7 sequence: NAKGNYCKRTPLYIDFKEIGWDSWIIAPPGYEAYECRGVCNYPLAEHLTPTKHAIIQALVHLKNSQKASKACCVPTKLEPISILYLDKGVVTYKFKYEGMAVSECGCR
Put plainly: Table 5 (caption: MSD-SET; Example 6 describes Biacore SPR on immobilised rhBMP10, Fab 31.25-1000 nM).

Assay [10] addresses T1, human BMP9 (BMP9/Growth Differentiation …). Put plainly: blocking ELISA; competitor Type I BMP receptor (AlkI). The method, then:
as §4, §5

Assay [11] deals with T5, human BMP2. The assay is described as follows: table caption: MSD-SET; Example 6 describes Biacore SPR for BMP2, BMP7, BMP10.
The target in assay [12] is T6, human BMP7. Described as above.
Assay [13] deals with T1, human BMP9 (BMP9/Growth Differentiation …). The assay is described as follows: cell-based or functional assay. This is another data set of the same source.
The target of assay [14] is T5, human BMP2. Put plainly: table caption: MSD-SET; Example 6 describes Biacore SPR for BMP2, BMP7, BMP10. The source holds these as a separate data set.
Assay [15] has as its target T7, human BMP10 (Bone Morphogenetic Protein …). The assay is described as follows: Table 7 (caption: MSD-SET; Example 6 describes Biacore SPR on immobilised rhBMP10, Fab 31.25-1000 nM).
The target of assay [16] is T1, human BMP9 (BMP9/Growth Differentiation …). The assay is described as follows: Biacore SPR, bivalent model, ka1.
The target is the same in assay [17]. Put plainly: Biacore SPR, bivalent model, kd1.
Assay [18] shares this target. Put plainly: Biacore SPR, bivalent model, KD from ka1 and kd1.

Substitutions are numbered along the chain they refer to. Read-outs that look alike come from different tables or passages of the source.

B1: Antibody BMP9-1: AM0100 (antibody, human IgG1, kappa, V domains shown)
VH: QVQLVQSGAEVKKPGASVKVSCKASGYTFTRYWMHWVRQAPGQGLEWMGEINPSQGGTNYNEKFKSRVTMTVDKSISTAYMELSRLRSDDTAVYYCAIGSNYGGLVYWGQGTLVTVSS
VL: EIVLTQSPATLSLSPGERATLSCRASESLDNYGISFMNWFQQKPGQAPRFLIYAASNQGSGIPARFSGSGSGTDFTLTISSLQPEDTAVYFCQQSKEVPRTFGGGTKVEIKR
notes: also called 4E10D7-AM0100
In general, IC50 refers to the concentration at which inhibition is half-maximal. As for B1, the “RGA IC50 [pM] (HEK293T BRE-Luc reporter gene assay)” value (shortened to “RGA IC50 [pM]”) in assay [1] amounted to 83 pM. Besides, the Kd in assay [2] is 0.182 nM; in assay [3], 0.128 nM; in assay [4], 0.094 nM; in [5], 0.073 nM. Besides, in [6], the IC50 was no more than 1 nM. In addition, the binding result in assay [7], in [8] and in assay [9] was “no binding” in each case.

B2: Antibody BMP9-4: AM4405 (antibody, human IgG1, kappa, V domains shown)
VH: QVQLVQSGAEVKKPGASVKVSCKASGYTFRSYNMHWVRQAPGQGLEWMGLIYPGNAVTSYSQKFKDRVTMTVDKSTSTAYMELSSLRSEDTAVYYCAKDDYFRGGSYAMDYWGQGTTVTVSS
VL: EIVLTQSPDFQSVTPKEKVTITCRASQSIRNNLHWYQQKPDQSPKLLIKYASQSIRGVPSRFSGSGSGTDFTLTINSLEAEDAATYYCQQSHSWPYTFGGGTKVEIKR
notes: also called 2B11G2-AM4405
B2: the “RGA IC50 [pM]” value in assay [1] is 90 pM. In addition, the Kd was found to be 0.018 nM in [2]; 0.048 nM in assay [3]; 0.013 nM in assay [4]; 0.008 nM in assay [5]; 177 nM in assay [11]; 9170 nM in assay [12]. Besides, the IC50 in [10] was no more than 1 nM. The binding result in assay [9] was “no binding”.

B3: Antibody BMP9-6: MOR022965 (antibody, human IgG1, kappa, V domains shown)
VH: QVQLVQSGAEVKKPGSSVKVSCKASGGTFSSYAISWVRQAPGQGLEWMGHIIPHWGHARYAQKFQGRVTITADESTSTAYMELSSLRSEDTAVYYCARSASSLPHFHWFDYWGQGTLVTVSS
VL: DIQMTQSPSSLSASVGDRVTITCRASQDINNYLNWYQQKPGKAPKLLIYAASRLQSGVPSRFSGSGSGTDFTLTISSLQPEDFATYYCQQRDTTPWTFGQGTKVEIKR
notes: Fully human, phage display
For the molecule B3, the “RGA IC50 [pM]” value in assay [13] was found to be 180 pM. Moreover, the Kd in [2] stood at 0.032 nM; in assay [3], 0.023 nM; in [5], 0.069 nM; in assay [14], 3110 nM. Also, the half-maximal inhibitory concentration (IC50) in [10] is no more than 1 nM. In addition, the binding result in assay [15] is recorded as “no binding”.

B4: Mouse Antibody 4E10D7 (antibody, V domains shown)
VH: QVQLQQPGAEAVKPGASVKLSCKASGYTFTRYWMHWVKQRPGQGLEWIGEINPSNGGTNYNEKFKSKATLTVDKSSSTAYMQLSSLTSEDFAVYYCTMGSNYGGFVYWGQGTLVTVSA
VL: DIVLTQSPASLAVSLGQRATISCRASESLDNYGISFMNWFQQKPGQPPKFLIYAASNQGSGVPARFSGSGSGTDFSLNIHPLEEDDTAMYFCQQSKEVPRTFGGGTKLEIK
notes: Mouse hybridoma monoclonal antibody; also called parental 4E10D7 antibody
One may read the kon as the second-order rate constant of association. Read a low kon as slow association. Broadly, the koff is the rate constant with which the complex falls apart. The low end stands for a long-lived complex, the high end for a short-lived complex. For the molecule B4, in assay [16], the kon is 281000 M⁻¹ s⁻¹. In assay [17], this molecule returned a koff of 0.000617 s⁻¹. In assay [18], this molecule yielded a Kd of 2.2 nM.

B5: Mouse Antibody 2B11G2 (antibody, V domains shown)
VH: QAYLQQSGAELVRPGASVKMSCKASGYTFPSYNMHWVKQTPRQGLEWIGVIYPGNGVTSYSQKFKDKATLTVDKSSSTAYMQLSSLTSEDSAVYFCAKDDYFYGGSYAMDYWGQGTSVTVSS
VL: DIVLTQSPATLSVTPGDSVSLSCRASQSISNNLHWYQQISHESPRLLIKYASQSISGIPSRFSGSGSGTDFTLSINSMETEDFGMFFCQQSHSWPYTFGGGTKLEIK
notes: Mouse hybridoma monoclonal antibody; also called B211G2
Take B5: the association rate constant (kon) in [16] amounted to 2510 M⁻¹ s⁻¹. The molecule also showed a koff in [17] of 0.000166 s⁻¹. In assay [18], the Kd worked out at 66.2 nM.

Values taken from US20160355583A1 (Novartis, published 2016).
